{"source": "patent US20230250176A1", "about": "(DRAGONFLY THERAPEUTICS, published 2023)", "key": {"[1]": {"target": "T1, human EGFR (wild type) on cells (human, UniProt P00533 25-1210)", "T1 construct": "whole, on cells; also called EGFRwt", "test": "flow cytometry, NCI-H2172 cells"}, "[2]": {"target": "T2, purified recombinant human FcRn (human, UniProt P55899 24-297; P61769 21-119)", "T2 construct": "also called neonatal Fc receptor", "test": "SPR (Biacore 8K), 25 C, pH 6.0; pH 6.0"}, "human NKG2D on cells [3]": {"target": "T3, human NKG2D on cells (human, UniProt P26718 1-216)", "T3 construct": "whole, on cells; also called NKG2D on KHYG-1 parental cells; NKG2D on CD8+ T cells and NK cells", "T3 sequence (looked up)": "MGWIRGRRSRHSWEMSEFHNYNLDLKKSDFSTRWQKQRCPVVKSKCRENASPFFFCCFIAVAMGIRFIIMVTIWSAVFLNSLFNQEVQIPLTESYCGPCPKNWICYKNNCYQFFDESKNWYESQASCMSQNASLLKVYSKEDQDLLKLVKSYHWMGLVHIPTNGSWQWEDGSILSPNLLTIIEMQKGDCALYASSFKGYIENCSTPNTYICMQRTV", "test": "flow cytometry with AF647-conjugated test article on KHYG-1 parental cells (NKG2D, no CD16a); KHYG-1 parental cell line (NKG2D+, CD16a-), titrated from 800 nM"}, "[4]": {"target": "T4, cynomolgus monkey EGFR on primary cynomolgus monkey esophageal epithelial cells (cynomolgus monkey, UniProt A0A2K5WK39 25-1210)", "T4 construct": "whole, on cells; also called cynomolgus monkey EGFR-expressing cells", "test": "flow cytometry on primary cynomolgus monkey esophageal epithelial cells, anti-human Fc-PE secondary"}, "[5]": {"target": "T1, human EGFR (wild type) on cells", "test": "flow cytometry, BT474 cells"}, "[6]": {"target": "T1, human EGFR (wild type) on cells", "test": "cell-based or functional assay"}, "[7]": {"target": "T5, human EGFR T790M, L858R on NCI-H1975 cells (human, UniProt P00533 25-1210)", "T5 construct": "whole, on cells; also called EGFRmut T790M, L858R", "test": "flow cytometry, NCI-H1975 cells"}, "[8]": {"target": "T1, human EGFR (wild type) on cells", "test": "flow cytometry, MDA-MB-453 cells"}, "[9]": {"target": "T1, human EGFR (wild type) on cells", "test": "flow cytometry, Detroit 562 cells"}, "[10]": {"target": "T1, human EGFR (wild type) on cells", "test": "flow cytometry, FaDu cells"}, "human NKG2D on cells [11]": {"target": "T3, human NKG2D on cells", "test": "cell-based or functional assay"}, "human NKG2D on cells [12]": {"target": "T3, human NKG2D on cells", "test": "cell-based or functional assay", "remark": "listed apart in the source"}, "[13]": {"target": "T5, human EGFR T790M, L858R on NCI-H1975 …", "test": "cell-based or functional assay"}, "[14]": {"target": "T1, human EGFR (wild type) on cells", "test": "cell-based or functional assay", "remark": "listed apart in the source"}, "[15]": {"target": "T6, cynomolgus monkey NKG2D on NK cells (cynomolgus monkey, UniProt P61252 1-216)", "T6 sequence (looked up)": "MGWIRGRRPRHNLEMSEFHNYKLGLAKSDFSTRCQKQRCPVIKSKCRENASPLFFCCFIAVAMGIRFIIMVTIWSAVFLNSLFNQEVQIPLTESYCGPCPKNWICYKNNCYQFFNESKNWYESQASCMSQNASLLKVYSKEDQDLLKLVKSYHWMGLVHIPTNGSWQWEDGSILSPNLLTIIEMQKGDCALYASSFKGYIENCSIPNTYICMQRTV", "test": "cell-based or functional assay"}, "[16]": {"target": "T5, human EGFR T790M, L858R on NCI-H1975 …", "test": "cell-based or functional assay", "remark": "listed apart in the source"}, "[17]": {"target": "T7, purified recombinant human FcγRIIIa V158 (human, UniProt P08637 17-208)", "T7 construct": "also called human CD16 V158; CD16a", "test": "SPR (Biacore 8K), 25 C"}, "[18]": {"target": "purified recombinant human FcγRI (human, UniProt P12314 16-288, limits assumed)", "test": "SPR (Biacore 8K), 25 C"}, "[19]": {"target": "T8, purified recombinant human FcγRIIa H131 (human, UniProt P12318 36-218, limits assumed)", "T8 sequence (looked up)": "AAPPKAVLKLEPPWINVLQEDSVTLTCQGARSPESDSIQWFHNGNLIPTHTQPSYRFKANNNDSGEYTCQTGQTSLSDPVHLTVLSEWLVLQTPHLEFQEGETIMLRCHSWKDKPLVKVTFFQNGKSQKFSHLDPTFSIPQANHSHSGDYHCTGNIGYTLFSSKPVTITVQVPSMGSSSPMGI", "test": "SPR (Biacore 8K), 25 C"}, "[20]": {"target": "T1, human EGFR (wild type) on cells", "test": "flow cytometry, HCT116 cells"}, "[21]": {"target": "T1, human EGFR (wild type) on cells", "test": "flow cytometry, 786-O cells"}, "[22]": {"target": "T9, human EGFR L747-E749del, A750P on HCC4006 cells (human, UniProt P00533 25-1210)", "T9 construct": "whole, on cells; The deletion L747-E749 cannot be written as a substitution; it stands under detail; also called EGFRmut L747-E749del, A750P", "test": "flow cytometry, HCC4006 cells"}}, "data": [{"binder": "EGFR-TriNKET (bispecific antibody, human IgG1, kappa, also called EGFR-TriNKET-3) DIQMTQSPSSLSASVGDRVTITCQASQDISNYLNWYQQKPGKAPKLLIYDASNLETGVPSRFSGSGSGTDFTFTISSLQPEDIATYYCQHFRHLPLAFGCGTKVEIKGGGGSGGGGSGGGGSGGGGSQVQLQESGPGLVKPSETLSLTCTVSGGSVSSGDYYWTWIRQSPGKCLEWIGHIYYSGNTNYNPRLKSRLTISIDTSKTQFSLKLSSVTAADTAIYYCVRDRVTGAFDIWGQGTMVTVSSGSDKTHTCPPCPAPELLGGPSVFLFPPKPKDTLMISRTPEVTCVVVDVSHEDPEVKFNWYVDGVEVHNAKTKPREEQYNSTYRVVSVLTVLHQDWLNGKEYKCKVSNKALPAPIEKTISKAKGQPREPRVYTLPPCRDELTKNQVSLTCLVKGFYPSDIAVEWESNGQPENNYKTTPPVLVSDGSFTLYSKLTVDKSRWQQGNVFSCSVMHEALHNHYTQKSLSLSPG heavy: EVQLVESGGGLVKPGGSLRLSCAASGFTFSSYSMNWVRQAPGKGLEWVSSISSSSSYIYYADSVKGRFTISRDNAKNSLYLQMNSLRAEDTAVYYCARGAPIGAAAGWFDPWGQGTLVTVSSASTKGPSVFPLAPSSKSTSGGTAALGCLVKDYFPEPVTVSWNSGALTSGVHTFPAVLQSSGLYSLSSVVTVPSSSLGTQTYICNVNHKPSNTKVDKKVEPKSCDKTHTCPPCPAPELLGGPSVFLFPPKPKDTLMISRTPEVTCVVVDVSHEDPEVKFNWYVDGVEVHNAKTKPREEQYNSTYRVVSVLTVLHQDWLNGKEYKCKVSNKALPAPIEKTISKAKGQPREPQVCTLPPSRDELTENQVSLTCLVKGFYPSDIAVEWESNGQPENNYKTTPPVLDSDGSFFLYSWLTVDKSRWQQGNVFSCSVMHEALHNHYTQKSLSLSPG light: DIQMTQSPSSVSASVGDRVTITCRASQGISSWLAWYQQKPGKAPKLLIYAASSLQSGVPSRFSGSGSGTDFTLTISSLQPEDFATYYCQQGVSFPRTFGGGTKVEIKRTVAAPSVFIFPPSDEQLKSGTASVVCLLNNFYPREAKVQWKVDNALQSGNSQESVTEQDSKDSTYSLSSTLTLSKADYEKHKVYACEVTHQGLSSPVTKSFNRGEC", "values": [{"measurement": "EC50", "setting": "[1]", "result": 1, "unit": "nM"}, {"measurement": "Max FOB", "setting": "[1]", "result": 140, "unit": "fold over background"}, {"measurement": "Kd", "setting": "[2]", "result": 1000, "unit": "nM"}, {"measurement": "EC50", "setting": "human NKG2D on cells [3]", "result": "> 600", "unit": "nM"}, {"measurement": "EC50", "setting": "[4]", "result": 1.09, "unit": "nM"}, {"measurement": "EC50", "setting": "[5]", "result": 0.77, "unit": "nM"}, {"measurement": "Max FOB", "setting": "[5]", "result": 41, "unit": "fold over background"}, {"measurement": "EC50, NK-dependent inhibition at 72 hours, HT29 tumor cells", "setting": "[6]", "result": 0.063, "unit": "nM"}, {"measurement": "EC50", "setting": "[7]", "result": 2.3, "unit": "nM"}, {"measurement": "Max FOB", "setting": "[7]", "result": 170, "unit": "fold over background"}, {"measurement": "EC50", "setting": "[8]", "result": 0.33, "unit": "nM"}, {"measurement": "Max FOB", "setting": "[8]", "result": 5, "unit": "fold over background"}, {"measurement": "EC50", "setting": "[9]", "result": 1.6, "unit": "nM"}, {"measurement": "Max FOB", "setting": "[9]", "result": 490, "unit": "fold over background"}, {"measurement": "EC50", "setting": "[10]", "result": 11, "unit": "nM"}, {"measurement": "Max FOB", "setting": "[10]", "result": 1200, "unit": "fold over background"}, {"measurement": "EC50, CD8+ T-cell lysis of 786-O cells", "setting": "human NKG2D on cells [11]", "result": 0.43, "unit": "nM"}, {"measurement": "EC50, CD8+ T-cell lysis of NCI-H1975 cells", "setting": "human NKG2D on cells [11]", "result": 0.17, "unit": "nM"}, {"measurement": "EC50, IFNγ release from NK cells (AlphaLISA) in the presence of HT29 cells", "setting": "human NKG2D on cells [12]", "result": 1.6, "unit": "nM"}, {"measurement": "EC50, IFNγ release from NK cells (AlphaLISA) in the presence of NCI-H1975 cells", "setting": "human NKG2D on cells [12]", "result": 0.88, "unit": "nM"}, {"measurement": "EC50, NK cell degranulation and cytokine production, human PBMCs with NCI-H1975", "setting": "[13]", "result": 0.067, "unit": "nM"}, {"measurement": "EC50, NK cell degranulation and cytokine production, human PBMCs with 786-O", "setting": "[14]", "result": 0.089, "unit": "nM"}, {"measurement": "EC50, NK cell degranulation and cytokine production, cynomolgus monkey PBMCs with 786-O", "setting": "[15]", "result": 0.023, "unit": "nM"}, {"measurement": "EC50, NK cell degranulation and cytokine production, cynomolgus monkey PBMCs with NCI-H1975", "setting": "[15]", "result": 0.037, "unit": "nM"}, {"measurement": "EC50, short-term NK cell-mediated cytotoxicity (DELFIA), NCI-H1975", "setting": "[16]", "result": 0.1, "unit": "nM"}, {"measurement": "Kd", "setting": "[17]", "result": 53.8, "unit": "nM"}, {"measurement": "koff", "setting": "[17]", "result": 0.011, "unit": "s⁻¹"}, {"measurement": "kon", "setting": "[17]", "result": 200000, "unit": "M⁻¹ s⁻¹"}, {"measurement": "Kd", "setting": "[18]", "result": 5.6, "unit": "nM"}, {"measurement": "koff", "setting": "[18]", "result": 0.00024, "unit": "s⁻¹"}, {"measurement": "kon", "setting": "[18]", "result": 42000, "unit": "M⁻¹ s⁻¹"}, {"measurement": "Kd", "setting": "[19]", "result": 1000, "unit": "nM"}, {"measurement": "EC50", "setting": "[20]", "result": 1.4, "unit": "nM"}, {"measurement": "Max FOB", "setting": "[20]", "result": 300, "unit": "fold over background"}, {"measurement": "EC50", "setting": "[21]", "result": 3.5, "unit": "nM"}, {"measurement": "Max FOB", "setting": "[21]", "result": 330, "unit": "fold over background"}, {"measurement": "EC50", "setting": "[22]", "result": 1.8, "unit": "nM"}, {"measurement": "Max FOB", "setting": "[22]", "result": 160, "unit": "fold over background"}]}]}
